From patent US20230374484
Where a chain is given by its changes, count along the chain named.

T1: activated clotting factor VIII (fVIIIa), P00451
T1 chain: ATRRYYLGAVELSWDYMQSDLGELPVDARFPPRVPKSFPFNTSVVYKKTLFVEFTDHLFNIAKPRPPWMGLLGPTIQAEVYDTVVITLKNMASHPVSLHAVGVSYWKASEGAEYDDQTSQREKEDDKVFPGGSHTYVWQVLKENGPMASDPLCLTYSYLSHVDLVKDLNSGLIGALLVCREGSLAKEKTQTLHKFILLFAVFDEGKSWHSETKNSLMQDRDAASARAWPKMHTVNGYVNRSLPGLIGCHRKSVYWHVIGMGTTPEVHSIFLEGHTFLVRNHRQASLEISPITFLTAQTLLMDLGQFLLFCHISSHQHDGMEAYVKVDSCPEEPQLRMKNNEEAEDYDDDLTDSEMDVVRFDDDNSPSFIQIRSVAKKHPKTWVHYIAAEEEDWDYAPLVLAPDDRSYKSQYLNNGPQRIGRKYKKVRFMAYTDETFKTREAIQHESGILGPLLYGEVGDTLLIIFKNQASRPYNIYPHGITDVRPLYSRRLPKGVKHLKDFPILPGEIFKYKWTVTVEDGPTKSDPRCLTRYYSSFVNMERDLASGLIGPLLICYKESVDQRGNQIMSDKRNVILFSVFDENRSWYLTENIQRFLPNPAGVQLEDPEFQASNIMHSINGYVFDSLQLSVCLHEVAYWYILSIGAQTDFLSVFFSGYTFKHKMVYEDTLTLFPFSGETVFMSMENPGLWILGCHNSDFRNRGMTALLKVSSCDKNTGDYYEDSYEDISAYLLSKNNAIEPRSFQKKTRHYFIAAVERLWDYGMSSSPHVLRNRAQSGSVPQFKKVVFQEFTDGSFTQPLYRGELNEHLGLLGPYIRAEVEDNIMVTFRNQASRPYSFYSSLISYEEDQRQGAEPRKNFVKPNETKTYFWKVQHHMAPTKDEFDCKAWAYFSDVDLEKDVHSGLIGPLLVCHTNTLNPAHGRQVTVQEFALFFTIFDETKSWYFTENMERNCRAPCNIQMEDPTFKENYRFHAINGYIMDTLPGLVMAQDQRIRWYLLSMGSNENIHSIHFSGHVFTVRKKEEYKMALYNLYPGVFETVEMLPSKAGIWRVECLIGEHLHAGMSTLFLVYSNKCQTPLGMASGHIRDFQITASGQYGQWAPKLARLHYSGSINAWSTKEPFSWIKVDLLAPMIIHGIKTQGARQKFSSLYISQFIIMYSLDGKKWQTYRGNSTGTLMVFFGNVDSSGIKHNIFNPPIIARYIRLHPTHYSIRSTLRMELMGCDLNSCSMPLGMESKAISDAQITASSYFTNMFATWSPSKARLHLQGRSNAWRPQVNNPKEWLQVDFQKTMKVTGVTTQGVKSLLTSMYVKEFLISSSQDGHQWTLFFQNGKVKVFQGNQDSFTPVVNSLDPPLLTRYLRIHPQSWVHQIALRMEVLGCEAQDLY

B1: An96 fIX (ancestral sequence 96 factor IX) (protein)
chain: YNSGKLEEFVRGNLERECIEEKCSFEEAREVFENTEKTTEFWKQYVDGDQCESNPCLNGGSCKDDINSYECWCRFGFEGKNCELDATCSIKNGRCKQFCKKSADNKVVCSCTEGYRLAEDQKSCEPAVPFPCGRVSVSHTSKKLTRAETIFSNMDYENSTEAETILDNVTQSTQSFNDFTRVVGGENAKPGQFPWQVLLNGKIDAFCGGSIINEKWVVTAAHCIEPGVKITVVAGEHNIEKTEPTEQKRNVIRVIPHHNYNATINKYSHDIALLELDKPLTLNSYVTPICIANREYTNIFLKFGSGYVSGWGRVFNRGRSASILQYLRVPLVDRATCLRSTKFTIYNNMFCAGYHEGGKDSCQGDSGGPHVTEVEGTSFLTGIISWGEECAMKGKYGIYTKVSRYVNWIKEKTKLT
B2: fIX optimized sequence Beta (no Padua) (protein)
chain: YNSGKLEEFVQGNLERECMEEKCSFEEAREVFENTERTTEFWKQYVDGDQCESNPCLNGGSCKDDINSYECWCPFGFEGKNCELDATCNIKNGRCEQFCKNSADNKVVCSCTEGYRLAENQKSCEPAVPFPCGRVSVSQTSKLTRAETVFPDVDYVNSTEAETILDNITQSTQSFNDFTRVVGGEDAKPGQFPWQVVLNGKVDAFCGGSIVNEKWIVTAAHCVETGVKITVVAGEHNIEETEHTEQKRNVIRIIPHHNYNAAINKYNHDIALLELDEPLVLNSYVTPICIANKEYTNIFLKFGSGYVSGWGRVFHRGRSASVLQYLRVPLVDRATCLRSTKFTIYNNMFCAGFHEGGRDSCQGDSGGPHVTEVEGTSFLTGIISWGEECAMKGKYGIYTKVSRYVNWIKEKTKLT
B3: fIX optimized sequence Beta (with Padua) (protein)
chain: B2 chain with R338L
B4: fIX optimized sequence Delta (no Padua) (protein)
chain: B2 chain with E277K, V280T, K293R
B5: fIX optimized sequence Gamma (with Padua) (protein)
chain: B2 chain with E277K, R338L
B6: fIX optimized sequence Gamma (no Padua) (protein)
chain: B2 chain with E277K

Molecular target: T1, activated clotting factor VIII …

Protein | fIX activity (one-stage APTT-dependent coagulation assay)
B1 | exhibits higher fIX activity
B2 | exhibits higher fIX activity
B3 | exhibits higher fIX activity
B4 | exhibits higher fIX activity
B5 | exhibits higher fIX activity
B6 | exhibits higher fIX activity
